In patent US8273705B2, “Conversion of apoptotic proteins” (The Burnham Institute, priority 2002, dated 2012):

Experiments:
[1] = test system: MCF-7 breast cancer cells; assay: DAPI apoptosis assay in MCF-7 cells; assay type: cell-based
Experimental: (§1) Apoptosis assays—For nuclear morphological change analysis, cells were trypsinized, washed with PBS, fixed with 3.7% paraformaldehyde, and stained with DAPI (4,6-diamidino-2-phenylindole) (50 μg/ml) to visualize the nuclei by UV-microscopy. The percentages of apoptotic cells were determined by counting 300 GFP-positive cells, scoring cells having nuclear fragmentation and/or chromatin condensation.
(§2) DAPI staining was used to study the apoptotic effect of TR3/Bcl-2 interaction. 293T cells were transfected with GFP-TR3/ΔDBD alone or together with Bcl-2. After 36 h, nuclei were stained by DAPI and nuclear fragmentation and chromatin condensation were identified. Cells were also stained with anti-Bcl-2 antibody, followed by TRITC-conjugated secondary antibody (Sigma). Bcl-2 and GFP-ΔDBD expression and nuclear morphology were visualized by fluorescence microscopy, and the two images were overlaid. […] But, when Bcl-2 was cotransfected, a significant amount of transfected cells underwent apoptosis. For example, approximately 4% of cells transfected with either TR3/ΔDBD or Bcl-2 were apoptotic, compared to 35% of cell transfected with both. […] Cotransfection of Bcl-2, however, prevented BAX-induced apoptosis in these cells (see FIG. 4). The effect of Bcl-2 on apoptotic potential of TR3/ΔDBD in lung cancer and breast cancer cells was also investigated.

[2] = test system: Bcl-2 mutants Y108K, L137A, G145A, R146Q; assay: Co-IP assay with Bcl-2 hydrophobic groove mutants in HEK293T cells; assay type: binding
Chain of Bcl-2 mutants Y108K, L137A, G145A, R146Q (P10415 1-80 limits assumed, stated change not applied): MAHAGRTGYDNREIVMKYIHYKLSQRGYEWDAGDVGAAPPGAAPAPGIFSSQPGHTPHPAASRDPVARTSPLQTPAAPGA
Experimental: TR3/Bcl-2 interaction assays—Reporter gene assays using NurRE-tk-CAT in CV-1 cells, and GST pull-down assay were described previously (Li, et al. 2000 Science 289, 1159-1164). For the mammalian two-hybrid assays, CV-1 cells were co-transfected with pcDNA-Gal4TAD-TR3 or pcDNA-Gal4TAD-TR3/ΔDBD and pcDNA-Gal4DBD-Bcl-2/ΔTM along with a luciferase reporter gene driven by four copies of the Gal4-binding site. The cells were harvested and reporter gene activity was measured. […] Immunoreactive products were detected by chemiluminescence with an enhanced chemiluminescence system (ECL) (Amersham).
Binding of BH3 domain to Bcl-2 is mediated by a hydrophobic cleft formed by the BH1, BH2, and BH3 region of Bcl-2 (Sattler et al. 1997 Science 275:983-986). To determine whether TR3/ΔDBD bound to the Bcl-2 hydrophobic groove, several Bcl-2 mutants with mutations of amino acids, Tyr108, Leu137, or Arg146, critical for the formation of the hydrophobic cleft, were analyzed for their interaction with TR3/ΔDBD. […] The Bcl-2 mutants, Y108KBcl-2, L137ABcl-2 and R146QBcl-2, were analyzed for their interaction with GFP-TR3/ΔDBD in 293T cells by Co-IP assay as described in Example 2. […]

[3] = test system: Calu-6 lung cancer cells; assay: DAPI apoptosis assay in Calu-6 cells; assay type: cell-based
Experimental: as §1, §2

[4] = test system: Bcl-2/ΔLoop; assay: Co-IP assay with Bcl-2/ΔLoop; assay type: binding
Experimental: Therefore, TR3/ΔDBD was analyzed as to its interaction with a fragment of Bcl-2 comprising the first 80 amino acids (Bcl-2/1-80). […] The Bcl-2/1-80 fragment encompasses the N-terminal BH4 domain followed by an unstructured loop domain of approximately 50 amino acids length. To determine whether the BH4 domain or the loop region was responsible for binding to TR3/ΔDBD, TR3/ΔDBD interaction with Bcl-2 mutants lacking the BH4 domain (Bcl-2/ΔBH4) or the loop region (Bcl-2/ΔLoop) was analyzed. […] Thus, the loop region of Bcl-2 is involved in binding to TR3.

[5] = target: T1, Bcl-2 (Homo sapiens, UniProt P10415); assay: Bcl-2 conformation by epitope-specific antibody immunofluorescence (flow cytometry); assay type: cell-based; conditions: HEK293T, co-expressed with Bcl-2, 14 h
T1 construct: expressed in transfected cells; host or cells: HEK293T
T1 sequence (P10415 whole entry): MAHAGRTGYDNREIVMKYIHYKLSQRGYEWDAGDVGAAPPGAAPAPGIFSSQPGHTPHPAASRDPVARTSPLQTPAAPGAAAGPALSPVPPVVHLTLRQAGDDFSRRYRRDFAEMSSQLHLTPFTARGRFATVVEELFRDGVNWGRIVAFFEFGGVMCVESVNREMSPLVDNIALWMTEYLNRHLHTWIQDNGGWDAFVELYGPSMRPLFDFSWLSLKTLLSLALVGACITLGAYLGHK
Experimental: Therefore the possibility that a conformational change might be involved in the conversion of Bcl-2 from anti-apoptotic to pro-apoptotic function was explored. To this end, the effects of TR3 on binding of Bcl-2 to various anti-Bcl-2 antibodies recognizing different epitopes were compared. Antibody binding to Bcl-2 was measured by immunofluorescence using flow cytometry (See FIGS. 9a-f) or by immunoprecipitation.
The transfected cells were identified by their green fluorescence by flow cytometric analysis, and the intensity of Bcl-2 immunofluorescence was compared between the GFP-positive and GFP-negative cells. […] This TR3/ΔDBD-induced change in Bcl-2 conformation was also observed in PBLs in addition to HEK293T cells (See FIGS. 9a-f).

B1: TR3/ΔDBD: TR3 mutant with the DNA binding domain removed; used as GFP fusion (protein)
chain: MPCIQAQYGTPAPSPGPRDHLASDPLTPEFIKPTMDLASPEAAPAAPTALPSFSTFMDGYTGEFDTFLYQLPGTVQPCSSASSSASSTSSSSATSPASASFKFEDFQVYGCYPGPLSGPVDEALSSSGSDYYGSPCSAPSPSTPSFQPPQLSPWDGSFGHFSPSQTYLVLHRLQCARGFGDWIDSILAFSRSLHSLLVDVPAFACLSALVLITDRHGLQEPRRVEELQNRIASCLKEHVAAVAGEPQPASCLSRLLGKLPELRTLCTQGLQRIFYLKLEDLVPPPPIIDKIFMDTLPF
modifications: left off: large carriers; small tags and cut ends
notes: used as GFP fusion
apoptosis ([1]; MCF-7, absence of Bcl-2): did not show any apoptotic effect
apoptosis ([1]; MCF-7, co-expression of Bcl-2): strong induction of apoptosis
binding of Bcl-2 hydrophobic groove mutants to TR3/ΔDBD (Co-IP) [2]: still capable of binding
apoptosis ([3]; Calu-6, absence of Bcl-2): did not show any apoptotic effect
apoptosis ([3]; Calu-6, co-expression of Bcl-2): strong induction of apoptosis
interaction with Bcl-2/ΔLoop (Co-IP) [4]: did not
Bcl-2 immunofluorescence, antibody against BH3-binding pocket [5]: reduced
Bcl-2 immunofluorescence, antibody against Bcl-2 BH3 domain [5]: dramatically increased
Bcl-2 immunofluorescence, antibody against whole Bcl-2 protein [5]: did not result in altered Bcl-2 immunofluorescence
